Measured values reported in publication PMC7055233.

Legend:
[1] = biological target: MapZ cytoplasmic domain (MapZ_(cyto)), wild type, residues 1-159 (S. pneumoniae (strain ATCC BAA-255/R6)) (UniProt Q8DR55); experiment: NMR titration; 1H-15N BEST-TROSY of 15N MapZ_(cyto) (30 to 50 µM, one sample for each ratio) with unlabelled monomeric FtsZb (no GTP, no MgCl2), 5 °C; peak intensity decrease; apparent constants, 1:1 complex assumed
[2] = biological target: MapZ cytoplasmic domain (MapZ_(cyto)), wild type, residues 1-159 (S. pneumoniae (strain ATCC BAA-255/R6)) (UniProt Q8DR55); experiment: NMR titration; 1H-15N BEST-TROSY of 30 µM 15N MapZ_(cyto) with polymeric FtsZb at 1:1, 1:3, 1:4 and 1:6; 30 mM HEPES, 200 mM KCl, pH 7.5, 10 mM GTP and MgCl2, 5 °C; peak intensity decrease; apparent constants, 1:1 complex assumed

UniProt Q8DR55, sequence (Q8DR55 other isoform, or with tags, fused parts or gaps): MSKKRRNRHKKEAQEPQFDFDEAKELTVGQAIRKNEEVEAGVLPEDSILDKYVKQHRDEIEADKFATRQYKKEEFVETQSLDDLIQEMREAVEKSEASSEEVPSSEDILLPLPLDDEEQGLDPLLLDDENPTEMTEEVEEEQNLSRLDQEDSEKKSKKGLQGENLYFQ

Kd [1]: 10 to 100 µM
Kd [2]: 10 to 100 µM
Substance: FtsZb, wild-type FtsZ from S. pneumoniae with an N-terminal glycine left after removal of GST by TEV protease (natural protein)
